Assay results taken from paper PMC8137956, “Orphan GPR116 mediates the insulin sensitizing effects of the hepatokine FNDC4 in adipose tissue” (Nature Communications, 2021).

Columns and labels:
[1] = target: T1, human GPR116 with C-terminal fused FLAG, stably overexpressed (human, UniProt Q8IZF2 22-1346); experiment: flow cytometry on cells; saturation binding of FcsFNDC4 or Fc control on HEK293T cells with stable human GPR116-FLAG OE or mock cells; also in excess of sFNDC4 (1 mM) for non-specific binding; 4 °C, PBS with 3% FBS; anti-human IgG-PE; Kd from specific binding; conditions: one partner purified
T1 construct: human GPR116, recombined from the pEntry1a GPR116 plasmid into plenti6/V5 DEST; Same construct in two HEK293 lines; also called GPR116 OE; HEK293T GPR116 (human) OE cells; not shown: FLAG, C-terminal, kept
T1 sequence (looked up): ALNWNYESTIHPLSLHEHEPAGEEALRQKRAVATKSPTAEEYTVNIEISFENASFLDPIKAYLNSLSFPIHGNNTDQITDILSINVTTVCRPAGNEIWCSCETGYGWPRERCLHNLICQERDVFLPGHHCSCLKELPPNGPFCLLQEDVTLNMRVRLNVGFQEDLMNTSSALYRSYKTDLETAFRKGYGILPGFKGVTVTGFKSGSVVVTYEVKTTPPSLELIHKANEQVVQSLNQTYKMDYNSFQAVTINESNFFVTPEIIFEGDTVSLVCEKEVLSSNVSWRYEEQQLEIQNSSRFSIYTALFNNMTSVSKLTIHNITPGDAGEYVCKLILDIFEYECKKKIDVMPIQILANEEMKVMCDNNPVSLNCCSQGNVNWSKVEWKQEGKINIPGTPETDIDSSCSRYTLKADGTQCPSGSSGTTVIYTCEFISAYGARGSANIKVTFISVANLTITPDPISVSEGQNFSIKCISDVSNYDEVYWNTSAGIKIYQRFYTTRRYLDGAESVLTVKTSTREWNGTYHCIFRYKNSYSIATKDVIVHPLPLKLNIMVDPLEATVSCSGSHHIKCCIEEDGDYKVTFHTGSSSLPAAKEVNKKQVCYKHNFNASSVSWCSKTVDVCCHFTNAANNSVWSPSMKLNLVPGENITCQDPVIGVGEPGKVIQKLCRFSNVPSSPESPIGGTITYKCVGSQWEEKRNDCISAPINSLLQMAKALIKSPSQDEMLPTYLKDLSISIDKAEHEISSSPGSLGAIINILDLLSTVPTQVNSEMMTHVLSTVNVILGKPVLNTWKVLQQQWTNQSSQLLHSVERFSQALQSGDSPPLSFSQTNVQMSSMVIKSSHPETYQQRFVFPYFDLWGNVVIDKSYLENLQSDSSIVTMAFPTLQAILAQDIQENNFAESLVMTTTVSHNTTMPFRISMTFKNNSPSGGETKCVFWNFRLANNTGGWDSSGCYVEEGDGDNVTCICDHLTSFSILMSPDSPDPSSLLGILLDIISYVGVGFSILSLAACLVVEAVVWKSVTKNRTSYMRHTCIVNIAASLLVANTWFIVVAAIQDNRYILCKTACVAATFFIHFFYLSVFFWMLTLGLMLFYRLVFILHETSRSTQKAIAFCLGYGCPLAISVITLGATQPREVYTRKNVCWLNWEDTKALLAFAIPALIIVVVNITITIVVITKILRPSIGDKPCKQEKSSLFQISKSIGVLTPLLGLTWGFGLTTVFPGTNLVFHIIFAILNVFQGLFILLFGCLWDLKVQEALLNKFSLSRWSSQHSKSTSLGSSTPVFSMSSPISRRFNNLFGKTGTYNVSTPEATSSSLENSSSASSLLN

[2] = target: T1, human GPR116 with C-terminal fused …; experiment: flow cytometry on cells; saturation binding of FcsFNDC4 or Fc control on HEK293A cells with stable human GPR116-FLAG OE or mock cells; 4 °C, PBS with 3% FBS; anti-human IgG-PE; Kd from total binding; conditions: one partner purified

B1: 6xHis-Fc-sFNDC4 fusion protein (extracellular part of mouse FNDC4 fused with human IgG Fc) (Fc fusion)
chain: RPPSPVNVTVTHLRANSATVSWDVPEGNIVIGYSISQQRQNGPGQRVIREVNTTTRACALWGLAEDSDYTVQVRSIGLRGESPPGPRVHFRTLKGSDRLPSNSSSPGDITVEGLDGERPLQTGE
notes: extracellular part of mouse FNDC4 (sFNDC4), stated as aa 40-160; also called FcFNDC4; FcsF4; not shown: 6xHis, N-terminal, kept; Fc (human IgG), N-terminal, kept
Kd [1]: 25 ± 5 nM | Kd [2]: 33 ± 10 nM
